Legend:
Monomeric human CD48-mmH = target: T1, Monomeric human CD48-mmH (human); assay: SPR (Biacore), antibody captured by anti-Fc, CD48 in solution, 37 C
T1 chain: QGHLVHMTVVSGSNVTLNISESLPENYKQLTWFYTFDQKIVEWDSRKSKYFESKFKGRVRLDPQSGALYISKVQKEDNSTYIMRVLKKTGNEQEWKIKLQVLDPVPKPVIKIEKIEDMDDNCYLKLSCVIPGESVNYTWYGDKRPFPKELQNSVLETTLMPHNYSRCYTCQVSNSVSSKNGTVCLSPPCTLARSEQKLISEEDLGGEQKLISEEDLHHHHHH
Procedure: (§1) Measurements were conducted on a T100-2 BIACORE™ instrument (Biacore Life Sciences division of GE Healthcare, Piscataway, N.J.). Antibodies (either with mouse Fc [designated “H2M” or “H3M”] or human IgG4 Fc [designated “H4H”]) were captured through an anti-Fc chip surface, and CD48 was flowed over the surface either in a monomeric (soluble CD48 expressed with a myc-myc-hexa-histidine C-terminal tag [mmH]) or dimeric (soluble CD48 expressed with a C-terminal Fc fusion [mFc]) format.
(§2) The soluble CD48 was applied to the flow cell in separate injections at different concentrations, and kinetic association (kₐ) and dissociation (kd) rate constants were determined by fits to the kinetic binding data using Biacore software. Binding dissociation equilibrium constants and dissociation half-times were calculated from the kinetic rate constants as: KD=kd/kₐ; t_{1/2}=(ln 2/kd) (units: ka=M⁻¹*s⁻¹; kd=s⁻¹; KD=M; T½=min) (Tables 3-6).

Dimeric human CD48-mFc = target: T2, Dimeric human CD48-mFc (human); assay: as above
T2 construct: the whole entry is the construct; also called hCD48-mFc
T2 chain: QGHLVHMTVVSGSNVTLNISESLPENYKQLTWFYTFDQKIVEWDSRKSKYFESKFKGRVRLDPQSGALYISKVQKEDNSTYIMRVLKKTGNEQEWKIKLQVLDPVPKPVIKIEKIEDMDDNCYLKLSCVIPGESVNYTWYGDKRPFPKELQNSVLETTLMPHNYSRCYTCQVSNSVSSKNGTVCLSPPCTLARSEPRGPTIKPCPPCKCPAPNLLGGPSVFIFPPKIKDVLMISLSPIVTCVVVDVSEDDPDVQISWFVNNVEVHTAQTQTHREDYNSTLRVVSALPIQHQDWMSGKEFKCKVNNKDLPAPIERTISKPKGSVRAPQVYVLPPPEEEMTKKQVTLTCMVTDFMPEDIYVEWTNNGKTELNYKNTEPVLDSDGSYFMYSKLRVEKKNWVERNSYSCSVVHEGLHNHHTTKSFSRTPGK
Procedure: as §1, §2

[1] = target: T3, Monomeric monkey CD48-mmH (monkey); assay: as above
T3 construct: Soluble monkey CD48 with a myc-myc-hexa-histidine C-terminal tag; the whole entry is the construct; also called mfCD48-mmH
T3 chain: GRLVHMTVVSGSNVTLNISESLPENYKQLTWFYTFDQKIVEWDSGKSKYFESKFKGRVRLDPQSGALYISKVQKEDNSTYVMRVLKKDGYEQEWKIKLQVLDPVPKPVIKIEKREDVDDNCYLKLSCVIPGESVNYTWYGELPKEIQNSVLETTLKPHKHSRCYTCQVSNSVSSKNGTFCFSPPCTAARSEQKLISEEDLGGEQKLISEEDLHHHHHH
Procedure: as §1, §2

Dimeric monkey CD48-mFc [2] = target: T4, Dimeric monkey CD48-mFc (monkey); assay: as above
T4 construct: Soluble monkey CD48 with a C-terminal Fc fusion [mFc]; the whole entry is the construct
T4 chain: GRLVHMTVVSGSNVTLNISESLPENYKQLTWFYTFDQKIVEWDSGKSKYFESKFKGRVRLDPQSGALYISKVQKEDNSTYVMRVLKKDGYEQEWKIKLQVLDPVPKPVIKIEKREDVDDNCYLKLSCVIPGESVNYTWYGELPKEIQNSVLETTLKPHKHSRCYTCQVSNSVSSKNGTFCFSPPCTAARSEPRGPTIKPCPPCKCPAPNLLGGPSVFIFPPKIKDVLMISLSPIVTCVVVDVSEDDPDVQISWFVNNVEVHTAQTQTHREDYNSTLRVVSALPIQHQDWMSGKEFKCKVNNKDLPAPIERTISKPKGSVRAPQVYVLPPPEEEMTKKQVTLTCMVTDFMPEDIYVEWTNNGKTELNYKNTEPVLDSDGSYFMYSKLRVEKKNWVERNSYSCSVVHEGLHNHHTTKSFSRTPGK
Procedure: as §1, §2

[3] = target: T3, Monomeric monkey CD48-mmH; assay: SPR (Biacore), antibody captured by anti-Fc, CD48 in solution, 25 C
Procedure: as §1, §2

Dimeric monkey CD48-mFc [4] = target: T4, Dimeric monkey CD48-mFc; assay: as above
Procedure: as §1, §2

B1: H4H1774P (antibody, human IgG4, V domains shown)
VH: QVQLVESGGGVVQPGRSLRLSCAASGFTFSNYGMHWVRQAPGKGLEWVAVIWYDESSKYYTDSVKGRFTISRDNSQNTLYLQMTSLRAEDTAVYYCARDRWTYSHYFEYWGQGTLVTVSS
VL: DIQMTQSPSSVSASVGDRVTITCRASQGISSWVAWYQQKPGKAPKLLIYAASSLQSGVPSRFSGSGSGTDFTLTISSLQPEDFATYYCQQANSFPRTFGQGTKVEIK
notes: Human IgG4 Fc (H4H)
Kd (Monomeric human CD48-mmH): 0.824 nM | T½ (Monomeric human CD48-mmH): 108 min | koff (Monomeric human CD48-mmH): 0.000107 s⁻¹ | kon (Monomeric human CD48-mmH): 130000 M⁻¹ s⁻¹ | Kd (Dimeric human CD48-mFc): 0.0439 nM | T½ (Dimeric human CD48-mFc): 724 min | koff (Dimeric human CD48-mFc): 1.6e-05 s⁻¹ | kon (Dimeric human CD48-mFc): 363000 M⁻¹ s⁻¹ | Kd [1]: 1.36 nM | T½ [1]: 43 min | koff [1]: 0.000267 s⁻¹ | kon [1]: 197000 M⁻¹ s⁻¹ | Kd (Dimeric monkey CD48-mFc [2]): 0.107 nM | T½ (Dimeric monkey CD48-mFc [2]): 214 min | koff (Dimeric monkey CD48-mFc [2]): 5.4e-05 s⁻¹ | kon (Dimeric monkey CD48-mFc [2]): 508000 M⁻¹ s⁻¹ | Kd [3]: 0.289 nM | T½ [3]: 151 min | koff [3]: 7.63e-05 s⁻¹ | kon [3]: 263000 M⁻¹ s⁻¹ | Kd (Dimeric monkey CD48-mFc [4]): 0.0525 nM | T½ (Dimeric monkey CD48-mFc [4]): 558 min | koff (Dimeric monkey CD48-mFc [4]): 2.07e-05 s⁻¹ | kon (Dimeric monkey CD48-mFc [4]): 395000 M⁻¹ s⁻¹

B2: H4H1775P (antibody, human IgG4, V domains shown)
VH: QVQLVESGGGVVQPGRSLRLSCAASGFTFSNYGMHWVRQAPGKGLEWVAVIWYDESGKHYADSVKGRFTISRDNSQNTLYLQMTSLRAEDTAVYYCARDRWTYSHYFEYWGQGTLVTVSS
VL: DIQMTQSPSSVSASVGDRVTITCRASQDISSWVAWYQQKPGKAPKLLIYAASSLQSGVPSRFSGSGSGTDFTLTISSLQPEDFATYYCQQANSFPRTFGQGTKVEIK
notes: Human IgG4 Fc (H4H)
Kd (Monomeric human CD48-mmH): 0.536 nM | T½ (Monomeric human CD48-mmH): 122 min | koff (Monomeric human CD48-mmH): 9.48e-05 s⁻¹ | kon (Monomeric human CD48-mmH): 177000 M⁻¹ s⁻¹ | Kd (Dimeric human CD48-mFc): 0.0434 nM | T½ (Dimeric human CD48-mFc): 509 min | koff (Dimeric human CD48-mFc): 2.27e-05 s⁻¹ | kon (Dimeric human CD48-mFc): 522000 M⁻¹ s⁻¹ | Kd [1]: 0.498 nM | T½ [1]: 90 min | koff [1]: 0.000129 s⁻¹ | kon [1]: 260000 M⁻¹ s⁻¹ | Kd (Dimeric monkey CD48-mFc [2]): 0.0593 nM | T½ (Dimeric monkey CD48-mFc [2]): 291 min | koff (Dimeric monkey CD48-mFc [2]): 3.97e-05 s⁻¹ | kon (Dimeric monkey CD48-mFc [2]): 669000 M⁻¹ s⁻¹ | Kd [3]: 0.14 nM | T½ [3]: 284 min | koff [3]: 4.07e-05 s⁻¹ | kon [3]: 291000 M⁻¹ s⁻¹ | Kd (Dimeric monkey CD48-mFc [4]): 0.0135 nM | T½ (Dimeric monkey CD48-mFc [4]): 1750 min | koff (Dimeric monkey CD48-mFc [4]): 6.6e-06 s⁻¹ | kon (Dimeric monkey CD48-mFc [4]): 488000 M⁻¹ s⁻¹

B3: H4H1779P (antibody, human IgG4, V domains shown)
VH: QVQLVESGGGVVQPGRSLRLSCAASGFTFSNYGMHWVRQAPGKGLEWVAVIWYDESSKHYADSVKGRFTISRDNSQNTLYLQMTSLRAEDTAVYYCARDRWTYSHYFEYWGQGTLVTVSS
VL: DIQMTQSPSSVSASVGDRVTITCRASQDISSWVAWYQQKPGKAPKLLIYAASSLQSGVPSRFSGSGSGTDFTLTISSLQPEDFATYYCQQANSFPRTFGQGTKVEIK
notes: Human IgG4 Fc (H4H)
Kd (Monomeric human CD48-mmH): 0.495 nM | T½ (Monomeric human CD48-mmH): 113 min | koff (Monomeric human CD48-mmH): 0.000102 s⁻¹ | kon (Monomeric human CD48-mmH): 207000 M⁻¹ s⁻¹ | Kd (Dimeric human CD48-mFc): 0.0594 nM | T½ (Dimeric human CD48-mFc): 252 min | koff (Dimeric human CD48-mFc): 4.59e-05 s⁻¹ | kon (Dimeric human CD48-mFc): 772000 M⁻¹ s⁻¹ | Kd [1]: 1.04 nM | T½ [1]: 40 min | koff [1]: 0.000289 s⁻¹ | kon [1]: 277000 M⁻¹ s⁻¹ | Kd (Dimeric monkey CD48-mFc [2]): 0.0829 nM | T½ (Dimeric monkey CD48-mFc [2]): 193 min | koff (Dimeric monkey CD48-mFc [2]): 5.98e-05 s⁻¹ | kon (Dimeric monkey CD48-mFc [2]): 721000 M⁻¹ s⁻¹ | Kd [3]: 0.375 nM | T½ [3]: 102 min | koff [3]: 0.000113 s⁻¹ | kon [3]: 301000 M⁻¹ s⁻¹ | Kd (Dimeric monkey CD48-mFc [4]): 0.0606 nM | T½ (Dimeric monkey CD48-mFc [4]): 364 min | koff (Dimeric monkey CD48-mFc [4]): 3.17e-05 s⁻¹ | kon (Dimeric monkey CD48-mFc [4]): 522000 M⁻¹ s⁻¹

B4: H4H1778P (antibody, human IgG4, V domains shown)
VH: QVQLVESGGGVVQPGRSLRLSCAASGFTFSNYGMHWVRQAPGKGLEWVAVIWYDESSKYYTDSVKGRFTISRDNSQNTLYLQMTSLRAEDTAVYYCARDRWTYSHYFEYWGQGTLVTVSS
VL: DIQMTQSPSSVSASVGDRVTITCRASQGISSWVAWYQQKPGKAPKLLIYAASSLQSGVPSRFSGSGSGTDFTLTISSLQPEDFATYYCQQANSFPRTFGQGTKVEIK
notes: Human IgG4 Fc (H4H)
Kd (Monomeric human CD48-mmH): 0.837 nM | T½ (Monomeric human CD48-mmH): 102 min | koff (Monomeric human CD48-mmH): 0.000113 s⁻¹ | kon (Monomeric human CD48-mmH): 135000 M⁻¹ s⁻¹ | Kd (Dimeric human CD48-mFc): 0.0746 nM | T½ (Dimeric human CD48-mFc): 327 min | koff (Dimeric human CD48-mFc): 3.53e-05 s⁻¹ | kon (Dimeric human CD48-mFc): 473000 M⁻¹ s⁻¹ | Kd [1]: 1.34 nM | T½ [1]: 46 min | koff [1]: 0.000253 s⁻¹ | kon [1]: 189000 M⁻¹ s⁻¹ | Kd (Dimeric monkey CD48-mFc [2]): 0.0686 nM | T½ (Dimeric monkey CD48-mFc [2]): 321 min | koff (Dimeric monkey CD48-mFc [2]): 3.6e-05 s⁻¹ | kon (Dimeric monkey CD48-mFc [2]): 525000 M⁻¹ s⁻¹ | Kd [3]: 0.325 nM | T½ [3]: 129 min | koff [3]: 8.98e-05 s⁻¹ | kon [3]: 276000 M⁻¹ s⁻¹ | Kd (Dimeric monkey CD48-mFc [4]): 0.046 nM | T½ (Dimeric monkey CD48-mFc [4]): 654 min | koff (Dimeric monkey CD48-mFc [4]): 1.77e-05 s⁻¹ | kon (Dimeric monkey CD48-mFc [4]): 384000 M⁻¹ s⁻¹

Reference: US20130230533A1 (Regeneron, published 2013)
